For 1 molecule, Kd results are on record in paper PMC8011160.

Assay [1] deals with collagen Type I (purified from rat tail) (rat), P02454. The assay is described as follows: ELISA; host protein coated on microtiter wells; recombinant protein varied from 0 to 2 μM; absorbance with BSA subtracted; apparent Kd from the half-maximal binding concentration (GraphPad Prism 6). The conditions noted are these: remark: other sources report otherwise.
The target in assay [2] is T1, fibrinogen (purified from human plasma) (human), P02671.
T1 chain 1: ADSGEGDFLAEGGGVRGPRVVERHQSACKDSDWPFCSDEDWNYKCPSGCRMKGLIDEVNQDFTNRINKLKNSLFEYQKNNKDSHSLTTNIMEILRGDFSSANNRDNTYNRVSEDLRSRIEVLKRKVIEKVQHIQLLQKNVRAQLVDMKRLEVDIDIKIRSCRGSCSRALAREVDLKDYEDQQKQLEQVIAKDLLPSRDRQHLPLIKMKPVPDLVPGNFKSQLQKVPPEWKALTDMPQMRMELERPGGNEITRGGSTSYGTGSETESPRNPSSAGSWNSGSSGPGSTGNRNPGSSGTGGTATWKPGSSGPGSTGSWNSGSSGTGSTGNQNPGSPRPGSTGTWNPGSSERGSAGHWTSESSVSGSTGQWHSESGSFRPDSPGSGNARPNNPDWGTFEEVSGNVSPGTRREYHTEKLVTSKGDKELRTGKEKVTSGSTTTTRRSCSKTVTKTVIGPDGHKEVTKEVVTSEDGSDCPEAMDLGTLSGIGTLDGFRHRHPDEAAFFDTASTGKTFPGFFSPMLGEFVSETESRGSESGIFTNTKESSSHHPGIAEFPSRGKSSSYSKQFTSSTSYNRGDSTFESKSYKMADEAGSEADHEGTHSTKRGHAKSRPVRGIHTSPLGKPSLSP
T1 chain 2: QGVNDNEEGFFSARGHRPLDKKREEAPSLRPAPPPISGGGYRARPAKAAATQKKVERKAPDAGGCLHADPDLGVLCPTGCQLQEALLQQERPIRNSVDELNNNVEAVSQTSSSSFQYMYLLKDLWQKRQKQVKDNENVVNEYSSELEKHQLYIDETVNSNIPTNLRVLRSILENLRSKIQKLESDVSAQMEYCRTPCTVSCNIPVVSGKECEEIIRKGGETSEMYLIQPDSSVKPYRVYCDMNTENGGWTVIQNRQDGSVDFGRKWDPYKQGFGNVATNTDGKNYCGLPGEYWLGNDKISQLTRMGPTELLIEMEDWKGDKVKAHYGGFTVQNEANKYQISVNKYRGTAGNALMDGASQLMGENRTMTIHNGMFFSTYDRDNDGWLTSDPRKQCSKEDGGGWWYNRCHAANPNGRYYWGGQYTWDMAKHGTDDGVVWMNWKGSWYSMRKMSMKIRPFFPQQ
T1 chain 3: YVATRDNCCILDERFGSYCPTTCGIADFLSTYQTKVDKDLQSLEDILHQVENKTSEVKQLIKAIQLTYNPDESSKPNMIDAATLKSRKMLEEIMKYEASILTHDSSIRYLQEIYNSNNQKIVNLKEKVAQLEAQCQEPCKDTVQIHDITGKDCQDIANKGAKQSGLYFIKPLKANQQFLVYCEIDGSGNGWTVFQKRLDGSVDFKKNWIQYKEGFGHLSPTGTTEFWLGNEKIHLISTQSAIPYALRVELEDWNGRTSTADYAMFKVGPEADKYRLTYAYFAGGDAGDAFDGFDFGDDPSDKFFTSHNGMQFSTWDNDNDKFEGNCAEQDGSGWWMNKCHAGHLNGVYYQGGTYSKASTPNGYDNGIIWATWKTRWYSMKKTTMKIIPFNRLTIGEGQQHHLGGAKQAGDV
Described as above. The following applies: remark: other sources report otherwise.

B1: GroEL protein of Leptospira interrogans (recombinant, His-tagged), P61438 1-546 (natural protein)
chain: MAKDIEYNETARRKLLEGVNKLANAVKVTLGPKGRNVVIDKKFGAPTITKDGVTVAKEIELEDPLENMGAQMVKEVSTKTNDVAGDGTTTATILAQSIINEGLKNVTAGANPMSLKKGIDKAVTAAVESIQKRAVKIENKKDIANVASISANNDNTIGNLIADAMDKVGKDGVITVEEAKSIETTLDVVEGMQFDRGYISPYMVTDAESMVATLNDPFILIYDKKISSMKDLIHILEKVAQAGKPLVIISEEVEGEALATIVVNTLRKTISCVAVKAPGFGDRRKSMLEDIAILTGGQVISEDLGMKLENTTLQMLGRANKVTVDKENTTIIEGKGQTKEIQGRIGQIKKQIEDTTSEYDREKLQERLAKLAGGVAVIHVGAATEVEMKEKKARVEDALSATRAAVEEGIVPGGGLTLLKAQEAVGSLKLDGDEATGAKIIFRALEEPIRMITSNAGLEGSVIVEHAKAKKGNEGFNALTMVWEDMIQAGVVDPAKVVRSALQNAASIGSMILTTEVTITDKPDKDAPNPMAGMGGGGMGGMGGMM
With B1, the Kd is 11 nM in assay [1] and 23 nM in assay [2].
